Measured values as given in PMC11880201 (Nature Communications, 2025).

Target: TEAD (residue 28-104) of TEAD1 (UniProt P28347 28-104)
Assay: fluorescence polarisation

Chain of TEAD (residue 28-104) of TEAD1 (P28347 28-104): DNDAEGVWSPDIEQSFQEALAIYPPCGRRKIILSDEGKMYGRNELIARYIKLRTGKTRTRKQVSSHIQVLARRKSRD

B1: FITC-labeled INSM1 ZF1 (domain or fragment)
chain: not shown
modifications: FITC label (FITC rapid labeling kit), site not stated
B1 was tested, and the Kd was 39.5 nM.
